From article PMC11189300, “Structure of the human KMN complex and implications for regulation of its assembly” (Nature Structural & Molecular Biology, 2024)

B1: Mis12 complex (Mis12C), full length: MIS12, PMF1, NSL1, DSN1 (complex, human)
chain 1: MSVDPMTYEAQFFGFTPQTCMLRIYIAFQDYLFEVMQAVEQVILKKLDGIPDCDISPVQIRKCTEKFLCFMKGHFDNLFSKMEQLFLQLILRIPSNILLPEDKCKETPYSEEDFQHLQKEIEQLQEKYKTELCTKQALLAELEEQKIVQAKLKQTLTFFDELHNVGRDHGTSDFRESLVSLVQNSRKLQNIRDNVEKESKRLKIS
chain 2: MAEASSANLGSGCEEKRHEGSSSESVPPGTTISRVKLLDTMVDTFLQKLVAAGSYQRFTDCYKCFYQLQPAMTQQIYDKFIAQLQTSIREEISDIKEEGNLEAVLNALDKIVEEGKVRKEPAWRPSGIPEKDLHSVMAPYFLQQRDTLRRHVQKQEAENQQLADAVLAGRRQVEELQLQVQAQQQAWQALHREQRELVAVLREPE
chain 3: MAGSPELVVLDPPWDKELAAGTESQALVSATPREDFRVRCTSKRAVTEMLQLCGRFVQKLGDALPEEIREPALRDAQWTFESAVQENISINGQAWQEASDNCFMDSDIKVLEDQFDEIIVDIATKRKQYPRKILECVIKTIKAKQEILKQYHPVVHPLDLKYDPDPAPHMENLKCRGETVAKEISEAMKSLPALIEQGEGFSQVLRMQPVIHLQRIHQEVFSSCHRKPDAKPENFITQIETTPTETASRKTSDMVLKRKQTKDCPQRKWYPLRPKKINLDT
chain 4: MTSVTRSEIIDEKGPVMSKTHDHQLESSLSPVEVFAKTSASLEMNQGVSEERIHLGSSPKKGGNCDLSHQERLQSKSLHLSPQEQSASYQDRRQSWRRASMKETNRRKSLHPIHQGITELSRSISVDLAESKRLGCLLLSSFQFSIQKLEPFLRDTKGFSLESFRAKASSLSEELKHFADGLETDGTLQKCFEDSNGKASDFSLEASVAEMKEYITKFSLERQTWDQLLLHYQQEAKEILSRGSTEAKITEVKVEPMTYLGSSQNEVLNTKPDYQKILQNQSKVFDCMELVMDELQGSVKQLQAFMDESTQCFQKVSVQLGKRSMQQLDPSPARKLLKLQLQNPPAIHGSGSGSCQ
notes: MIS12, human, subunit of the Mis12 complex; PMF1, human, subunit of the Mis12 complex; NSL1, human, subunit of the Mis12 complex; DSN1, human, subunit of the Mis12 complex (DSN1^SORT-HIS); In BLI one partner was biotinylated by sortase (GGGG-biotin peptide); also called Mis12C^WT; wild-type Mis12C; source: Tnao38 insect cells (baculovirus from pBIG1A), purified (Talon, SEC); copies: + + +

Assays:
Conditions in all cases: both partners purified
[1] = biological target: T1, DSN1 (subunit of Mis12C in the KMN structure) (human, UniProt Q9H410 1-356); experiment: cryo-EM structure; eight-subunit KMN (full-length Mis12C, SPC24 109–197/SPC25 92–224, ZWINT, KNL1 2,021–2,342), 0.3 mg/ml with 0.003% Triton; reconstruction at 4.5 Å; model fitted from known structures and AF2 predictions and refined against the map
T1 construct: DSN1, human; also called DSN1^SORT-HIS; source: Tnao38 insect cells (baculovirus), co-expressed in Mis12C, purified (Talon, SEC)
T1 sequence (looked up): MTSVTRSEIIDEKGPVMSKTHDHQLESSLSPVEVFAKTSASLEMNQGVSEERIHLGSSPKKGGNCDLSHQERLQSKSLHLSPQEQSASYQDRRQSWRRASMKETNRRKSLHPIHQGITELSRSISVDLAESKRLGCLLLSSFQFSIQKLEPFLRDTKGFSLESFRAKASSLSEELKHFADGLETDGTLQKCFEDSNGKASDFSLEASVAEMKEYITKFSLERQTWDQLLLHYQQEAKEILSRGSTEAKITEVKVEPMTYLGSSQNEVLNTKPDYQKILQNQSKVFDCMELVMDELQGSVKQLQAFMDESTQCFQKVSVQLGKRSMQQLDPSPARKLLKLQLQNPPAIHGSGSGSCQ

[2] = biological target: B1; experiment: as above
[3] = biological target: T2, Ndc80 complex (Ndc80C): NDC80^HEC1, NUF2, SPC24, SPC25 (human, UniProt O14777 1-642; Q9BZD4 1-464; Q8NBT2 1-197; Q9HBM1 1-224); experiment: BLI; Octet SA biosensors loaded with the biotinylated ligand, analyte at different concentrations; 25 °C; 50 mM HEPES pH 8.0, 150 mM NaCl, 2 mM TCEP, 0.05% Tween-20; which partner was loaded is not given
T2 construct: NDC80 (HEC1), human; NUF2, human; SPC24, human; SPC25, human; also called complete Ndc80C; copies: + + +
T2 sequence (O14777 whole entry, chain 1 of 2): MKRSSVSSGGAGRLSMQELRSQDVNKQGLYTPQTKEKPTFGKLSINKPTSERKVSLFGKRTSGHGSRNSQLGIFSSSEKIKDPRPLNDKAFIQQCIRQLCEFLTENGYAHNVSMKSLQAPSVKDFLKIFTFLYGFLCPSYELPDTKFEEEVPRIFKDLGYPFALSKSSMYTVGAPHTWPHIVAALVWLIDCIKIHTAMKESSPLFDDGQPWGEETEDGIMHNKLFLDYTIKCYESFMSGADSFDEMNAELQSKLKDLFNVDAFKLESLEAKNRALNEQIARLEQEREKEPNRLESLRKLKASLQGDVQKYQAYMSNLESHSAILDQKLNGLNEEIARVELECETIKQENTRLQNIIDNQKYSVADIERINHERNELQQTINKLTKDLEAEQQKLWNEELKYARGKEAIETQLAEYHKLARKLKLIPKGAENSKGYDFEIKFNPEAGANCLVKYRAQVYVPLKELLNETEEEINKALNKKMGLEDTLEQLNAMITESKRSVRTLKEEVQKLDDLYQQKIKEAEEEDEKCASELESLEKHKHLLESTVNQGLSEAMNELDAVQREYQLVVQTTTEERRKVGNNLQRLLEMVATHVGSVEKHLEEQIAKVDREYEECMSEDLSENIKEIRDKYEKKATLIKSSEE
T2 sequence (Q9BZD4 whole entry, chain 2 of 2): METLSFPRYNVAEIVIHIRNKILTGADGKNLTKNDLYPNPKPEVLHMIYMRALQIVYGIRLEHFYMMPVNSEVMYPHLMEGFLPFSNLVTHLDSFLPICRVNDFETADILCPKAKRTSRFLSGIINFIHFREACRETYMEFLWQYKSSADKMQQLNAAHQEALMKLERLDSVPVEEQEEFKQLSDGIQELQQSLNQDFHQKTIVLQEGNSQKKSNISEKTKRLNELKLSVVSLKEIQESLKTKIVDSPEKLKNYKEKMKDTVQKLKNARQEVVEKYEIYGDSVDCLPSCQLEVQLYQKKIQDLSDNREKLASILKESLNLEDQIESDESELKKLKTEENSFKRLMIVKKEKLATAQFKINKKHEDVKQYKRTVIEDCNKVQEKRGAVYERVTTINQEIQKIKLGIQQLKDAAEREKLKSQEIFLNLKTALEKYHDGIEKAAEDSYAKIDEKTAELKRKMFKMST

[4] = biological target: B1; experiment: ITC; PEAQ-ITC; 50 mM HEPES pH 8.0, 150 mM NaCl, 1 mM TCEP; 19 injections; one-site binding fit

| Binder | binding result [1] | Kd [3] | fold reduction of binding affinity against the wild-type pair [4] | other results |
| --- | --- | --- | --- | --- |
| KNL1 residues 2,021–2,342 (domain or fragment, human, UniProt Q8NG31 2021-2342, looked up, KNL1 (CASC5), human, C-terminal region, residues 2,021–2,342; numbering of isoform 1 of the CASC5 gene; also called KNL1_(2,021–2,342); Knl1_(2,021–2,342); source: E. coli BL21(DE3)-Codon-plus-RIPL, purified (glutathione-agarose, TEV cleavage, SEC)) GKLVQSAQNEREKLQIKIDEMDKILKKIDNCLTEMETETKNLEDEEKNNPVEEWDSEMRAAEKELEQLKTEEEELQRNLLELEVQKEQTLAQIDFMQKQRNRTEELLDQLSLSEWDVVEWSDDQAVFTFVYDTIQLTITFEESVVGFPFLDKRYRKIVDVNFQSLLDEDQAPPSSLLVHKLIFQYVEEKESWKKTCTTQHQLPKMLEEFSLVVHHCRLLGEEIEYLKRWGPNYNLMNIDINNNELRLLFSSSAAFAKFEITLFLSAYYPSVPLPSTIQNHVGNTSQDDIATILSKVPLENNYLKNVVKQIYQDLFQDCHFYH | binds |  |  | binding result [2]: binds |
| SPC25_(92–224) (domain or fragment, human, UniProt Q9HBM1 92-224, looked up, SPC25, human, residues 92–224 (RWD domain); source: E. coli BL21(DE3)-codon-plus-RIPL, co-purified with SPC24 (glutathione-agarose, 3C protease, SEC)) KKQELEVLTANIQDLKEEYSRKKETISTANKANAERLKRLQKSADLYKDRLGLEIRKIYGEKLQFIFTNIDPKNPESPFMFSLHLNEARDYEVSDSAPHLEGLAEFQENVRKTNNFSAFLANVRKAFTATVYN | binds |  |  |  |
| B1 |  | ~6 nM |  |  |
| Mis12C with KNL1_(2,026–2,342) bound (complex, human, MIS12, human; PMF1, human; NSL1, human; DSN1, human; numbering of isoform 1 of the CASC5 gene; also called Mis12C + KNL1; source: Mis12C: Tnao38 insect cells, purified; KNL1: E. coli BL21(DE3)-Codon-plus-RIPL, purified; copies: + + + +) chain 1: MSVDPMTYEAQFFGFTPQTCMLRIYIAFQDYLFEVMQAVEQVILKKLDGIPDCDISPVQIRKCTEKFLCFMKGHFDNLFSKMEQLFLQLILRIPSNILLPEDKCKETPYSEEDFQHLQKEIEQLQEKYKTELCTKQALLAELEEQKIVQAKLKQTLTFFDELHNVGRDHGTSDFRESLVSLVQNSRKLQNIRDNVEKESKRLKIS chain 2: MAEASSANLGSGCEEKRHEGSSSESVPPGTTISRVKLLDTMVDTFLQKLVAAGSYQRFTDCYKCFYQLQPAMTQQIYDKFIAQLQTSIREEISDIKEEGNLEAVLNALDKIVEEGKVRKEPAWRPSGIPEKDLHSVMAPYFLQQRDTLRRHVQKQEAENQQLADAVLAGRRQVEELQLQVQAQQQAWQALHREQRELVAVLREPE chain 3: MAGSPELVVLDPPWDKELAAGTESQALVSATPREDFRVRCTSKRAVTEMLQLCGRFVQKLGDALPEEIREPALRDAQWTFESAVQENISINGQAWQEASDNCFMDSDIKVLEDQFDEIIVDIATKRKQYPRKILECVIKTIKAKQEILKQYHPVVHPLDLKYDPDPAPHMENLKCRGETVAKEISEAMKSLPALIEQGEGFSQVLRMQPVIHLQRIHQEVFSSCHRKPDAKPENFITQIETTPTETASRKTSDMVLKRKQTKDCPQRKWYPLRPKKINLDT chain 4: MTSVTRSEIIDEKGPVMSKTHDHQLESSLSPVEVFAKTSASLEMNQGVSEERIHLGSSPKKGGNCDLSHQERLQSKSLHLSPQEQSASYQDRRQSWRRASMKETNRRKSLHPIHQGITELSRSISVDLAESKRLGCLLLSSFQFSIQKLEPFLRDTKGFSLESFRAKASSLSEELKHFADGLETDGTLQKCFEDSNGKASDFSLEASVAEMKEYITKFSLERQTWDQLLLHYQQEAKEILSRGSTEAKITEVKVEPMTYLGSSQNEVLNTKPDYQKILQNQSKVFDCMELVMDELQGSVKQLQAFMDESTQCFQKVSVQLGKRSMQQLDPSPARKLLKLQLQNPPAIHGSGSGSCQ chain 5: SAQNEREKLQIKIDEMDKILKKIDNCLTEMETETKNLEDEEKNNPVEEWDSEMRAAEKELEQLKTEEEELQRNLLELEVQKEQTLAQIDFMQKQRNRTEELLDQLSLSEWDVVEWSDDQAVFTFVYDTIQLTITFEESVVGFPFLDKRYRKIVDVNFQSLLDEDQAPPSSLLVHKLIFQYVEEKESWKKTCTTQHQLPKMLEEFSLVVHHCRLLGEEIEYLKRWGPNYNLMNIDINNNELRLLFSSSAAFAKFEITLFLSAYYPSVPLPSTIQNHVGNTSQDDIATILSKVPLENNYLKNVVKQIYQDLFQDCHFYH |  | ~1 nM |  |  |
| SPC24/SPC25^L154A-L176A (complex, human, SPC24, human; SPC25, human, L154A and L176A; limits not restated, likely full length; GST cleaved off with 3C protease; also called SPC^M2; source: E. coli BL21(DE3)-codon-plus-RIPL, purified (glutathione-agarose, 3C protease, SEC)) chain 1: MAAFRDIEEVSQGLLSLLGANRAEAQQRRLLGRHEQVVERLLETQDGAEKQLREILTMEKEVAQSLLNAKEQVHQGGVELQQLEAGLQEAGEEDTRLKASLLQLTRELEELKEIEADLERQEKEVDEDTTVTIPSAVYVAQLYHQVSKIEWDYECEPGMVKGIHHGPSVAQPIHLDSTQLSRKFISDYLWSLVDTEW chain 2: MVEDELALFDKSINEFWNKFKSTDTSCQMAGLRDTYKDSIKAFAEKLSVKLKEEERMVEMFLEYQNQISRQNKLIQEKKDNLLKLIAEVKGKKQELEVLTANIQDLKEEYSRKKETISTANKANAERLKRLQKSADLYKDRLGLEIRKIYGEKAQFIFTNIDPKNPESPFMFSLHANEARDYEVSDSAPHLEGLAEFQENVRKTNNFSAFLANVRKAFTATVYN |  |  | ~27 fold |  |
| SPC24^Y138A/SPC25 (complex, human, SPC24, human, Y138A; SPC25, human; limits not restated, likely full length; GST cleaved off with 3C protease; also called SPC^M1; source: E. coli BL21(DE3)-codon-plus-RIPL, purified (glutathione-agarose, 3C protease, SEC)) chain 1: MAAFRDIEEVSQGLLSLLGANRAEAQQRRLLGRHEQVVERLLETQDGAEKQLREILTMEKEVAQSLLNAKEQVHQGGVELQQLEAGLQEAGEEDTRLKASLLQLTRELEELKEIEADLERQEKEVDEDTTVTIPSAVAVAQLYHQVSKIEWDYECEPGMVKGIHHGPSVAQPIHLDSTQLSRKFISDYLWSLVDTEW chain 2: MVEDELALFDKSINEFWNKFKSTDTSCQMAGLRDTYKDSIKAFAEKLSVKLKEEERMVEMFLEYQNQISRQNKLIQEKKDNLLKLIAEVKGKKQELEVLTANIQDLKEEYSRKKETISTANKANAERLKRLQKSADLYKDRLGLEIRKIYGEKLQFIFTNIDPKNPESPFMFSLHLNEARDYEVSDSAPHLEGLAEFQENVRKTNNFSAFLANVRKAFTATVYN |  |  | ~5 fold |  |
